In patent US20220125837A1, “METHODS FOR CONTROLLED ELIMINATION OF THERAPEUTIC CELLS” (Bellicum Pharmaceuticals, Inc., priority 2014, published 2022):

System: HEK293T/16 cells
Test: Secreted alkaline phosphatase (SEAP) surrogate killing assay of iCasp9 mutants
Assay type: cell-based, human
Details: for relative SEAP activity Units (basal activity): no AP1903; for basal activity, in words: SEAP assay without AP1903, relative to wild type Caspase-9
Procedure: Early passage HEK293T/16 cells (ATCC, Manassas, Va.) were maintained in IMDM, GlutaMAX™ (Life Technologies, Carlsbad, Calif.) supplemented with 10% FBS, 100 U/mL penicillin, and 100 U/mL streptomycin until transfection in a humidified, 37° C., 5% CO2/95% air atmosphere. Cells in logarithmic-phase growth were transiently transfected with 800 ng to 2 μg of expression plasmid encoding iCasp9 mutants and 500 ng of an expression plasmid encoding SRα promoter driven SEAP per million cells in 15-mL conical tubes. […] GeneJammer® Transfection Reagent at a ratio of 3 μl per ug of plasmid DNA was used to transiently transfect HEK293T/16 cells in the absence of antibiotics. 100 μl or 2 mL of the transfection mixture was added to each well in 96-well or 6-well plate, respectively.
Briefly, after 65° C. heat denaturation for 45 minutes to reduce background caused by endogenous (and serum-derived) alkaline phosphatases that are sensitive to heat, 5 μl of supernatants was added to 95 μl of PBS and added to 100 μl of substrate buffer, containing 1 μl of 100 mM 4-methylumbelliferyl phosphate (4-MUP; Sigma, St. Louis, Mo.) re-suspended in 2 M diethanolamine. Hydrolysis of 4-MUP by SEAP produces a fluorescent substrate with excitation/emission (355/460 nm), which can be easily measured. […] 1000-ul of the mixture was seeded onto each well of a 96-well plate. […] For the assay, 4-methylumbelliferyl phosphate substrate was hydrolyzed by SEAP to 4-methylumbelliferon, a metabolite that can be excited with 364 nm and detected with an emission filter of 448 nm. Since SEAP is used as a marker for cell viability, reduced SEAP reading corresponds with increased iCaspase-9 activities.

Molecule | basal activity, in words | other results
D330A-N405Q: modified Caspase-9 polypeptide having a substitution at position 330 and a substitution at position 405 (protein, UniProt P55211 1-416, looked up, variant D330A N405Q, iCasp9, fused to FKBP12 F36V domain) MDEADRRLLRRCRLRLVEELQVDQLWDALLSRELFRPHMIEDIQRAGSGSRRDQARQLIIDLETRGSQALPLFISCLEDTGQDMLASFLRTNRQAAKLSKPTLENLTPVVLRPEIRKPEVLRPETPRPVDIGSGGFGDVGALESLRGNADLAYILSMEPCGHCLIINNVNFCRESGLRTRTGSNIDCEKLRRRFSSLHFMVEVKGDLTAKKMVLALLELAQQDHGALDCCVVVILSHGCQASHLQFPGAVYGTDGCPVSVEKIVNIFNGTSCPSLGGKPKLFFIQACGGEQKDHGFEVASTSPEDESPGSNPEPDATPFQEGLRTFDQLAAISSLPTPSDIFVSYSTFPGFVSWRDPKSGSWYVETLDDIFEQWAHSEDLQSLLLRVANAVSVKGIYKQMPGCFQFLRKKLFFKTS | intermediate | relative SEAP activity Units (basal activity) (1 μg iCasp9 per million cells, higher SEAP = lower basal activity): 205772; relative SEAP activity Units (basal activity) (2 μg iCasp9 per million cells): 174366; basal activity, in words (listed as iCasp9 D330A N405Q): low to undetectable basal activity
N405F: chimeric modified Caspase-9 polypeptide (protein, UniProt P55211 1-416, looked up, variant N405F, fused to FKBP12 F36V dimerization domain, chimeric modified Caspase-9 polypeptide) MDEADRRLLRRCRLRLVEELQVDQLWDALLSRELFRPHMIEDIQRAGSGSRRDQARQLIIDLETRGSQALPLFISCLEDTGQDMLASFLRTNRQAAKLSKPTLENLTPVVLRPEIRKPEVLRPETPRPVDIGSGGFGDVGALESLRGNADLAYILSMEPCGHCLIINNVNFCRESGLRTRTGSNIDCEKLRRRFSSLHFMVEVKGDLTAKKMVLALLELAQQDHGALDCCVVVILSHGCQASHLQFPGAVYGTDGCPVSVEKIVNIFNGTSCPSLGGKPKLFFIQACGGEQKDHGFEVASTSPEDESPGSNPEPDATPFQEGLRTFDQLDAISSLPTPSDIFVSYSTFPGFVSWRDPKSGSWYVETLDDIFEQWAHSEDLQSLLLRVANAVSVKGIYKQMPGCFFFLRKKLFFKTS | lowered basal activity | 
^402GCFNF^406ISAQT: Caspase-9 polypeptide with the equivalent 5 residues from Caspase-10 (protein, UniProt P55211 1-416, looked up, variant G402I C403S F404A N405Q F406T) MDEADRRLLRRCRLRLVEELQVDQLWDALLSRELFRPHMIEDIQRAGSGSRRDQARQLIIDLETRGSQALPLFISCLEDTGQDMLASFLRTNRQAAKLSKPTLENLTPVVLRPEIRKPEVLRPETPRPVDIGSGGFGDVGALESLRGNADLAYILSMEPCGHCLIINNVNFCRESGLRTRTGSNIDCEKLRRRFSSLHFMVEVKGDLTAKKMVLALLELAQQDHGALDCCVVVILSHGCQASHLQFPGAVYGTDGCPVSVEKIVNIFNGTSCPSLGGKPKLFFIQACGGEQKDHGFEVASTSPEDESPGSNPEPDATPFQEGLRTFDQLDAISSLPTPSDIFVSYSTFPGFVSWRDPKSGSWYVETLDDIFEQWAHSEDLQSLLLRVANAVSVKGIYKQMPISAQTLRKKLFFKTS | reduced basal activity | 
D327G: chimeric modified Caspase-9 polypeptide (protein) VDGFGDVGALESLRGNADLAYILSMEPCGHCLIINNVNFCRESGLRTRTGSNIDCEKLRRRFSSLHFMVEVKGDLTAKKMVLALLELARQDHGALDCCVVVILSHGCQASHLQFPGAVYGTDGCPVSVEKIVNIFNGTSCPSLGGKPKLFFIQACGGEQKDHGFEVASTSPEDESPGSNPEPDATPFQEGLRTFGQLDAISSLPTPSDIFVSYSTFPGFVSWRDPKSGSWYVETLDDIFEQWAHSEDLQSLLLRVANAVSVKGIYKQMPGCFNFLRKKLFFKTSASRA | did not lower basal activity | 
Q328R: chimeric modified Caspase-9 polypeptide (protein) VDGFGDVGALESLRGNADLAYILSMEPCGHCLIINNVNFCRESGLRTRTGSNIDCEKLRRRFSSLHFMVEVKGDLTAKKMVLALLELARQDHGALDCCVVVILSHGCQASHLQFPGAVYGTDGCPVSVEKIVNIFNGTSCPSLGGKPKLFFIQACGGEQKDHGFEVASTSPEDESPGSNPEPDATPFQEGLRTFDRLDAISSLPTPSDIFVSYSTFPGFVSWRDPKSGSWYVETLDDIFEQWAHSEDLQSLLLRVANAVSVKGIYKQMPGCFNFLRKKLFFKTSASRA | did not lower basal activity | 
D327K: chimeric modified Caspase-9 polypeptide (protein) VDGFGDVGALESLRGNADLAYILSMEPCGHCLIINNVNFCRESGLRTRTGSNIDCEKLRRRFSSLHFMVEVKGDLTAKKMVLALLELARQDHGALDCCVVVILSHGCQASHLQFPGAVYGTDGCPVSVEKIVNIFNGTSCPSLGGKPKLFFIQACGGEQKDHGFEVASTSPEDESPGSNPEPDATPFQEGLRTFKQLDAISSLPTPSDIFVSYSTFPGFVSWRDPKSGSWYVETLDDIFEQWAHSEDLQSLLLRVANAVSVKGIYKQMPGCFNFLRKKLFFKTSASRA | did not lower basal activity | 
D327R: chimeric modified Caspase-9 polypeptide (protein) VDGFGDVGALESLRGNADLAYILSMEPCGHCLIINNVNFCRESGLRTRTGSNIDCEKLRRRFSSLHFMVEVKGDLTAKKMVLALLELARQDHGALDCCVVVILSHGCQASHLQFPGAVYGTDGCPVSVEKIVNIFNGTSCPSLGGKPKLFFIQACGGEQKDHGFEVASTSPEDESPGSNPEPDATPFQEGLRTFRQLDAISSLPTPSDIFVSYSTFPGFVSWRDPKSGSWYVETLDDIFEQWAHSEDLQSLLLRVANAVSVKGIYKQMPGCFNFLRKKLFFKTSASRA | did not lower basal activity | 
L329K: chimeric modified Caspase-9 polypeptide (protein) VDGFGDVGALESLRGNADLAYILSMEPCGHCLIINNVNFCRESGLRTRTGSNIDCEKLRRRFSSLHFMVEVKGDLTAKKMVLALLELARQDHGALDCCVVVILSHGCQASHLQFPGAVYGTDGCPVSVEKIVNIFNGTSCPSLGGKPKLFFIQACGGEQKDHGFEVASTSPEDESPGSNPEPDATPFQEGLRTFDQKDAISSLPTPSDIFVSYSTFPGFVSWRDPKSGSWYVETLDDIFEQWAHSEDLQSLLLRVANAVSVKGIYKQMPGCFNFLRKKLFFKTSASRA | did not lower basal activity | 
A331K: chimeric modified Caspase-9 polypeptide (protein) VDGFGDVGALESLRGNADLAYILSMEPCGHCLIINNVNFCRESGLRTRTGSNIDCEKLRRRFSSLHFMVEVKGDLTAKKMVLALLELARQDHGALDCCVVVILSHGCQASHLQFPGAVYGTDGCPVSVEKIVNIFNGTSCPSLGGKPKLFFIQACGGEQKDHGFEVASTSPEDESPGSNPEPDATPFQEGLRTFDQLDKISSLPTPSDIFVSYSTFPGFVSWRDPKSGSWYVETLDDIFEQWAHSEDLQSLLLRVANAVSVKGIYKQMPGCFNFLRKKLFFKTSASRA | did not lower basal activity | 
Q328K: chimeric modified Caspase-9 polypeptide (protein) VDGFGDVGALESLRGNADLAYILSMEPCGHCLIINNVNFCRESGLRTRTGSNIDCEKLRRRFSSLHFMVEVKGDLTAKKMVLALLELARQDHGALDCCVVVILSHGCQASHLQFPGAVYGTDGCPVSVEKIVNIFNGTSCPSLGGKPKLFFIQACGGEQKDHGFEVASTSPEDESPGSNPEPDATPFQEGLRTFDKLDAISSLPTPSDIFVSYSTFPGFVSWRDPKSGSWYVETLDDIFEQWAHSEDLQSLLLRVANAVSVKGIYKQMPGCFNFLRKKLFFKTSASRA | did not lower basal activity | 
T317C: chimeric modified Caspase-9 polypeptide (protein) VDGFGDVGALESLRGNADLAYILSMEPCGHCLIINNVNFCRESGLRTRTGSNIDCEKLRRRFSSLHFMVEVKGDLTAKKMVLALLELARQDHGALDCCVVVILSHGCQASHLQFPGAVYGTDGCPVSVEKIVNIFNGTSCPSLGGKPKLFFIQACGGEQKDHGFEVASTSPEDESPGSNPEPDACPFQEGLRTFDQLDAISSLPTPSDIFVSYSTFPGFVSWRDPKSGSWYVETLDDIFEQWAHSEDLQSLLLRVANAVSVKGIYKQMPGCFNFLRKKLFFKTSASRA | no effect | 
L329G: chimeric modified Caspase-9 polypeptide (protein) VDGFGDVGALESLRGNADLAYILSMEPCGHCLIINNVNFCRESGLRTRTGSNIDCEKLRRRFSSLHFMVEVKGDLTAKKMVLALLELARQDHGALDCCVVVILSHGCQASHLQFPGAVYGTDGCPVSVEKIVNIFNGTSCPSLGGKPKLFFIQACGGEQKDHGFEVASTSPEDESPGSNPEPDATPFQEGLRTFDQGDAISSLPTPSDIFVSYSTFPGFVSWRDPKSGSWYVETLDDIFEQWAHSEDLQSLLLRVANAVSVKGIYKQMPGCFNFLRKKLFFKTSASRA | did not lower basal activity | 
F326K: chimeric modified Caspase-9 polypeptide (protein) VDGFGDVGALESLRGNADLAYILSMEPCGHCLIINNVNFCRESGLRTRTGSNIDCEKLRRRFSSLHFMVEVKGDLTAKKMVLALLELARQDHGALDCCVVVILSHGCQASHLQFPGAVYGTDGCPVSVEKIVNIFNGTSCPSLGGKPKLFFIQACGGEQKDHGFEVASTSPEDESPGSNPEPDATPFQEGLRTKDQLDAISSLPTPSDIFVSYSTFPGFVSWRDPKSGSWYVETLDDIFEQWAHSEDLQSLLLRVANAVSVKGIYKQMPGCFNFLRKKLFFKTSASRA | did not lower basal activity | 
